Reference: PMC2821091

Biological target: porcine dentin sialoprotein (DSP) (porcine)
Experiment: SDS-PAGE and Western blot under oxidizing

stoichiometry N: 2
Substance: porcine dentin sialoprotein (DSP) (natural protein)
